The assay addresses T1, Human ROBO2 overexpressed on HEK293 cells (human, UniProt Q9HCK4 22-1378).
T1 construct: also called ROBO2 cells; native ROBO2
T1 sequence: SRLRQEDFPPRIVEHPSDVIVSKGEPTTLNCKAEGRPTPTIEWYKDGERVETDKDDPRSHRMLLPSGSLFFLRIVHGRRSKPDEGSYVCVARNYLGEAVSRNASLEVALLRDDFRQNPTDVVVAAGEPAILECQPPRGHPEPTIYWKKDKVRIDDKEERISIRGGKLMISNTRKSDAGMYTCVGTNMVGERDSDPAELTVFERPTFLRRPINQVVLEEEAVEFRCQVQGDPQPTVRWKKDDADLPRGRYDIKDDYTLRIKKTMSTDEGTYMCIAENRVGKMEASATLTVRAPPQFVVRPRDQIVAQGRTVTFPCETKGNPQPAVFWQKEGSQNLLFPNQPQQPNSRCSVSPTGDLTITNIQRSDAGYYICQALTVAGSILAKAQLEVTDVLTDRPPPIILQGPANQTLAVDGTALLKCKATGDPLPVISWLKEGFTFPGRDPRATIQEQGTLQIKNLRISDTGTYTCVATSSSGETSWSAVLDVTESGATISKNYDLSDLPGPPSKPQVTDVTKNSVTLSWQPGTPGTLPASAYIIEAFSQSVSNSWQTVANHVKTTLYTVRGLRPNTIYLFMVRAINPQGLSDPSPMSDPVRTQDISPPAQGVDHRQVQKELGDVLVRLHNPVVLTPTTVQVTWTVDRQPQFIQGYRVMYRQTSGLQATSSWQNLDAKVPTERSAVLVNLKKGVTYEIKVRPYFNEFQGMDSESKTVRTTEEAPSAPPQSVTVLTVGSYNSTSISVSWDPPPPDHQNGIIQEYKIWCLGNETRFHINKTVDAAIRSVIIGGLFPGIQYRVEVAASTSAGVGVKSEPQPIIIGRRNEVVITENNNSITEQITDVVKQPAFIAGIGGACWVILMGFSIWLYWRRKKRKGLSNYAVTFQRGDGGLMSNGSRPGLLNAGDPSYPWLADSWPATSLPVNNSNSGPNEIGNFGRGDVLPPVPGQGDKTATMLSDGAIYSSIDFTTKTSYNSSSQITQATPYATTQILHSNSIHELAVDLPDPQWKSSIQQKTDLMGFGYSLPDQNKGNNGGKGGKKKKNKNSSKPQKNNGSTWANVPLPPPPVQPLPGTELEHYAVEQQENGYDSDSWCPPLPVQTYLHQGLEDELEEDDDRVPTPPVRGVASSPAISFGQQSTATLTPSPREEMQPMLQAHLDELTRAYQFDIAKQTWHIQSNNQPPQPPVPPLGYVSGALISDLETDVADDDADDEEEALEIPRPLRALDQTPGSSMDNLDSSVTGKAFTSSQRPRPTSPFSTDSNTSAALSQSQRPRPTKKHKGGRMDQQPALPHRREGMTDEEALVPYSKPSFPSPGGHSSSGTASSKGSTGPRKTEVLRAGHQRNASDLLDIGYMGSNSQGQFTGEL
Put plainly: flow cytometry, HEK293 cells. Here is the method: Using flow cytometry, improvement in the binding EC₅₀ to human ROBO2 relative to the parental 93H2 was evaluated. Starting at 6.7 nM, 11-point, 3-fold dilution series were made for each antibody and used to stain HEK293 overexpressing human ROBO2 as described above for the ROBO2 fold selectivity (Example 2). […] In addition to measuring improved binding to human ROBO2, it was important to ensure that high affinity binding to both cynomolgus monkey ROBO2 and rat ROBO2 was maintained. Using HEK293 cells overexpressing either cynomolgus monkey ROBO2 or rat ROBO2, the relative dose-dependent binding of 93H2, Abcs25 and Abcs35 was evaluated as described above. High affinity binding to both cynomolgus monkey and rat ROBO2 was maintained in Abcs25 and Abcs35 (Table 4). […] Briefly, Abcs35 was immobilized to 300 resonance units (RU) on a CM5 chip. Association of ROBO2 Ig1-Ig2-His (ROBO2) was measured over 5 minutes and dissociation was followed for a period of 10 minutes.
The binding profile of Abcs35-J compared to Abcs35 was determined for human ROBO2, orthologs from cynomolgus monkey and rat, human ROBO1 and specificity for the RSK epitope from ROBO2 but not KSR from ROBO1. Binding was assessed by flow cytometry as described in Examples 2 (homolog specificity), Example 3 (ortholog reactivity) and Example 5 (RSK vs KSR epitope specificity). […] Binding of the antibodies was detected using a secondary fluorochrome conjugated anti-human IgG F(ab′)₂ antibody and samples analyzed on a Fortessa cytometer (BD Biosciences).
On the technique in general: Flow cytometry measures light scatter and fluorescence of single cells or particles in a stream.

Residue numbers refer to the chain shown, from its start.

Here are results for two molecules from US20200157212A1 (Pfizer, published 2020).

Broadly, the EC50 is the concentration that produces a half-maximal response. Read a low EC50 as higher potency in that assay.

B1: Abcs35 (antibody, human IgG1, kappa)
heavy: EVQLVQSGAEVKKPGASVKVSCKASGYTFTGYYMHWVRQAPGQGLEWMGWINPKNGDTEFPQKFQGRVTMTRDTSITTAYMDLSRLRSDDTAVYYCARESGDDAFDIWGQGTMVTVSSASTKGPSVFPLAPSSKSTSGGTAALGCLVKDYFPEPVTVSWNSGALTSGVHTFPAVLQSSGLYSLSSVVTVPSSSLGTQTYICNVNHKPSNTKVDKKVEPKSCDKTHTCPPCPAPEAAGAPSVFLFPPKPKDTLMISRTPEVTCVVVDVSHEDPEVKFNWYVDGVEVHNAKTKPREEQYNSTYRVVSVLTVLHQDWLNGKEYKCKVSNKALPAPIEKTISKAKGQPREPQVYTLPPSREEMTKNQVSLTCLVKGFYPSDIAVEWESNGQPENNYKTTPPVLDSDGSFFLYSKLTVDKSRWQQGNVFSCSVMHEALHNHYTQKSLSLSPGK
light: DIVMTQSPSSLSASVGDRVTITCRASQSISSYLNWYQQKPGKAPKLLIYAASSLQSGVPSRFSGSGSGTDFTLTISSLQPEDFATYYCQQSVGLFFGGGTKVEIKRTVAAPSVFIFPPSDEQLKSGTASVVCLLNNFYPREAKVQWKVDNALQSGNSQESVTEQDSKDSTYSLSSTLTLSKADYEKHKVYACEVTHQGLSSPVTKSFNRGEC
notes: fully human IgG1; VH of Ab96 with VL of Ab123
In turn, B1 yielded an EC50 of 89 pM.

B2: Abcs35-J (antibody, human IgG1, kappa)
heavy: B1 heavy with D82E
light: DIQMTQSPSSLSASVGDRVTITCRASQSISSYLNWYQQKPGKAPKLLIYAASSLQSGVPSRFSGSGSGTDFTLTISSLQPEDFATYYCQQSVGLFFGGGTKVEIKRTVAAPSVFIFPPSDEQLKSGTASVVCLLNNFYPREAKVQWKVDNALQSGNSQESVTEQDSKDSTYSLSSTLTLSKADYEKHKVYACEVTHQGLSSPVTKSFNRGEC
notes: germlined variant of Abcs35; also called ABCS-J
As to B2, a half-maximal response (EC50) required 102 pM.
